Laboratory results: US20190106460A1, “BINDING INHIBITORS OF THE BETA. TRANSDUCIN REPEAT-CONTAINING PROTEIN” (priority 2011, published 2019)
Read-outs that look alike come from different tables or passages of the source. Starred links: 1 amine or outer side, 2 acyl side, 3 side chain; linkers in the order of their positions; H or OH if unused. Suc = O=C(CCC(=O)[*:2])[*:1]

Assays:
[1] = biological target: HisβTrCP/Skp1 and HisβTrCP/GSTSkp1 (immobilised on NTA Biacore chip), Q9Y297; test: SPR, Biacore T200, βTrCP/Skp1 immobilised
HisβTrCP/Skp1 and HisβTrCP/GSTSkp1 (immobilised on NTA Biacore chip), Q9Y297, sequence (Q9Y297 175-605, chain 1 of 2): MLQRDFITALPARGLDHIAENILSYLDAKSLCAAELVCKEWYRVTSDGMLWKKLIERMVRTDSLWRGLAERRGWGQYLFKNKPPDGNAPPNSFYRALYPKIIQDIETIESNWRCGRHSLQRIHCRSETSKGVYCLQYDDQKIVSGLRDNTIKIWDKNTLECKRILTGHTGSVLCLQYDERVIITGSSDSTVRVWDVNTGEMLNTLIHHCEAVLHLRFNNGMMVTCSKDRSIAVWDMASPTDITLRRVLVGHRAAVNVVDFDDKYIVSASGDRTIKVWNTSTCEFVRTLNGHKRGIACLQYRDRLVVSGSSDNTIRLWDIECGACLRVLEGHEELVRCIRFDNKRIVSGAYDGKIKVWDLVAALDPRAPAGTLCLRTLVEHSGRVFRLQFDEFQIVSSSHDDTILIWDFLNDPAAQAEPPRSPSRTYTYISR
HisβTrCP/Skp1 and HisβTrCP/GSTSkp1 (immobilised on NTA Biacore chip), Q9Y297, sequence (P63208 whole entry, chain 2 of 2, further chain): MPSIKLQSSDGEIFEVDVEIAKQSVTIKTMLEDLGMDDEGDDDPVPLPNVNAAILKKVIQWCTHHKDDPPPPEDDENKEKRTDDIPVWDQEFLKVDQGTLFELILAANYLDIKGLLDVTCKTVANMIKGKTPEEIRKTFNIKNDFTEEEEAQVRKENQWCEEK

[2] = biological target: Skp2, Q13309; test: cell-based or functional assay
Skp2, Q13309, sequence (Q13309 whole entry): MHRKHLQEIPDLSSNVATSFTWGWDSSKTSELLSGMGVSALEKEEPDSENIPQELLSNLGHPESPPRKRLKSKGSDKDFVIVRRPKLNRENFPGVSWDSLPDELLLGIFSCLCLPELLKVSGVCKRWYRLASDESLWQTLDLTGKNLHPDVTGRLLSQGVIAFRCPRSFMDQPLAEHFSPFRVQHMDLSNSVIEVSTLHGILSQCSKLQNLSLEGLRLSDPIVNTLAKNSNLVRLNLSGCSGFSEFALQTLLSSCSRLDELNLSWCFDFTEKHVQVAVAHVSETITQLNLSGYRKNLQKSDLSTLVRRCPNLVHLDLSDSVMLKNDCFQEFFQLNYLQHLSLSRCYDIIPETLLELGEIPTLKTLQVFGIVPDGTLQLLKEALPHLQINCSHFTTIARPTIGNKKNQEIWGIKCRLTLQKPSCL

[3] = biological target: T1, Fbw7, Q969H0; test: cell-based or functional assay
T1 chain: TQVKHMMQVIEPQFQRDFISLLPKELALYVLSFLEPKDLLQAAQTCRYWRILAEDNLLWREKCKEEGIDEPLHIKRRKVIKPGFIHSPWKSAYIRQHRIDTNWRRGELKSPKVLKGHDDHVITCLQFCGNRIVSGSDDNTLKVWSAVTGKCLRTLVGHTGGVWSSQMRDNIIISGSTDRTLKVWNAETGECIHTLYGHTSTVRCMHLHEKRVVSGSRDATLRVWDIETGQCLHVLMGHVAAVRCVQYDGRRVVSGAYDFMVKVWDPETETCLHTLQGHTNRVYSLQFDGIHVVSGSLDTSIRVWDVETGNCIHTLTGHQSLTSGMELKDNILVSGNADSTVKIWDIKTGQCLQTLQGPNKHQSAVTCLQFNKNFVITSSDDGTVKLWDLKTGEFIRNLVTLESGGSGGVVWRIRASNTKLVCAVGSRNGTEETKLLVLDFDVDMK

[4] = biological target: βTrCP (tag cleaved and complexed with Skp1), Q9Y297; test: FP competition vs fluorescein-IκB peptide
βTrCP (tag cleaved and complexed with Skp1), Q9Y297, sequence (Q9Y297 175-605, chain 1 of 2): as the sequence (Q9Y297 175-605, chain 1 of 2) above
βTrCP (tag cleaved and complexed with Skp1), Q9Y297, sequence (P63208 whole entry, chain 2 of 2, further chain): as the sequence (P63208 whole entry, chain 2 of 2, further chain) above

[5] = biological target: βTrCP (tag cleaved and complexed with Skp1), Q9Y297; test: FP competition vs fluorescein-IκB peptide; remark: listed apart in the source

Kd [1]: 537 nM | % Inhibition Skp2 @ 10 µM [2]: 11% | % Inhibition Skp2 @ (100 µM) [2]: 28% | % Inhibition Fbw7 @ 10 µM [3]: 0% | % Inhibition Fbw7 @ (100 µM) [3]: 0% | IC50 [4]: 1040 nM | IC50 [5]: 1000 nM
B1: Suc-EGYFE-NH2 (peptide)
peptide: Suc-EGYFE-NH2
SMILES: NC(=O)[C@H](CCC(=O)O)NC(=O)[C@H](Cc1ccccc1)NC(=O)[C@H](Cc1ccc(O)cc1)NC(=O)CNC(=O)[C@H](CCC(=O)O)NC(=O)CCC(=O)O
